Results as given in paper PMC4058081, “p600 regulates spindle orientation in apical neural progenitors and contributes to neurogenesis in the developing neocortex” (Biology Open, 2014).

Legend:
[1] = target: the molecule itself; test: static light scattering; Ndel1^1–201 alone in solution; data not included
[2] = target: T1, recombinant p600^4480–5183 (human, UniProt Q5T4S7 4480-5183); test: SEC; analytical SEC, Superdex 200 5/150, 4°C, 10 mM HEPES pH 7.5, 0.15 M NaCl, 1 mM DTT; proteins alone or mixed at 50 µM and incubated 30 min on ice; fractions analysed by SDS-PAGE; details: both partners purified
T1 construct: Elutes mostly as a monomer (~75 kDa) in SEC; also called C-terminal portion of p600; source: E. coli BL21-Rosetta, purified (glutathione sepharose, PreScission cleavage, Resource Q)
T1 sequence (Q5T4S7 4480-5183): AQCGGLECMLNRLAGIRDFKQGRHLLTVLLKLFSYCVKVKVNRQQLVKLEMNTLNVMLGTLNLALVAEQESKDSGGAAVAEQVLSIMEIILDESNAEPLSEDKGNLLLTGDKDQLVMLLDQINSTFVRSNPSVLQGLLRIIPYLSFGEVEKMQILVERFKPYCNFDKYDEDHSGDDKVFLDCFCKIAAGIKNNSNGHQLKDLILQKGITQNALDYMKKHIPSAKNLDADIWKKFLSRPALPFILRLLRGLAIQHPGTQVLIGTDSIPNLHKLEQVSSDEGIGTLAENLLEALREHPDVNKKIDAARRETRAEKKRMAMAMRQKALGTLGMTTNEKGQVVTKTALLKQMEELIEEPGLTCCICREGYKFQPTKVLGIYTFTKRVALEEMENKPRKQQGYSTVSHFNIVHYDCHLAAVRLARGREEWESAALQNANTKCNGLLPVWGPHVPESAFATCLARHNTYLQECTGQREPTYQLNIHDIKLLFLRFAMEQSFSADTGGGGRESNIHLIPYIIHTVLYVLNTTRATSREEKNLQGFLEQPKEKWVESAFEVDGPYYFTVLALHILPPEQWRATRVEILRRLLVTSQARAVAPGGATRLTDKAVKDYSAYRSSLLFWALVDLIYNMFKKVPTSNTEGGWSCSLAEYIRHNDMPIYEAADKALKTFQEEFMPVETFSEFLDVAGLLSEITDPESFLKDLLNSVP

B1: Ndel1^1–201 (coiled-coil region of Ndel1) (domain or fragment, UniProt Q9GZM8 1-201, looked up)
chain: MDGEDIPDFSSLKEETAYWKELSLKYKQSFQEARDELVEFQEGSRELEAELEAQLVQAEQRNRDLQADNQRLKYEVEALKEKLEHQYAQSYKQVSVLEDDLSQTRAIKEQLHKYVRELEQANDDLERAKRATIVSLEDFEQRLNQAIERNAFLESELDEKESLLVSVQRLKDEARDLRQELAVRERQQEVTRKSAPSSPTL
notes: Dimeric in solution by static light scattering (data not included); also called N-terminal coiled-coil domain of Ndel1; source: E. coli BL21-Rosetta, purified (Ni-NTA, ion exchange)
Question: How did the “stoichiometry N” value [1] turn out when B1 was run?
Answer: The value was 2.

Question: What about the Kd [2] of the same binder?
Answer: Its Kd is 30 to 50 µM.
